Results on 14 molecules are retold here after patent publication US20150266963A1 (ARGEN X B V, published 2015).

The target in test [1] is T1, recombinant human CD27 Fc chimera (CD27-Fc) (human, UniProt P26842 21-192).
T1 construct: Bought reagent; also called recombinant CD27-Fc; Fc part of the bought chimera not given
T1 sequence (looked up): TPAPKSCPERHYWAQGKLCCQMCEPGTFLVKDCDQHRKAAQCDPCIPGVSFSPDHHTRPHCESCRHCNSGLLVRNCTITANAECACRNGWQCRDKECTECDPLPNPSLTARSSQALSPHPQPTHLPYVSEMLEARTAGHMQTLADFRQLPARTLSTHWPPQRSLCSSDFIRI
Put plainly: ELISA; captured Flag-TNC-CD70. Background: ELISA stands for enzyme-linked immunosorbent assay.

Test [2] concerns the target T2, recombinant human CD70 (Flag-TNC-CD70) (human, UniProt P32970 39-193).
T2 construct: extracellular domain; Captured by anti-Flag mAb in ELISA; as 'recombinant human CD70' immobilised on Biacore CM5 chips; TNC is for trimerisation; also called recombinant CD70; human recombinant CD70; not shown: Flag tag and TNC trimerisation domain
T2 sequence (looked up): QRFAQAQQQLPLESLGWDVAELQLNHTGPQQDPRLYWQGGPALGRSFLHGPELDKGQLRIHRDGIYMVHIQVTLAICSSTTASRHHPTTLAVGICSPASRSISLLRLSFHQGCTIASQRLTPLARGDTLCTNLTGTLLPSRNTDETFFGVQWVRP
Put plainly: inhibition ELISA: Flag-TNC-CD70 captured by anti-Flag mAb, Fab titrated, remaining binding of CD27-Fc detected. As to the method:
From selected phage transfected into TG1, individual colonies were picked randomly for growth in 96 well plates. After IPTG induction according to standard protocols periplasmic fractions (penis) containing Fabs were prepared. […] In this assay, Flag-TNC-CD70 is captured by an anti-Flag mAb and binding of CD27-Fc is detected via a biotinylated anti-CD27 mAb and strep-HRP in the absence or presence of CD70 Fabs (FIGS. 2 and 3) or CD70 mAbs (FIG. 4). In FIG. 2B it can be seen that 27B3, which has an identical VH as 9D1, but contains a somewhat different light chain, seems to block binding of CD27 to CD70 more efficiently, which was in line with the better off rate of this Fab as measured on Biacore (data not shown). Table 3 indicates the blocking potency (expressed as IC50) for the various llama-human chimeric mAbs tested in the CD70 inhibition ELISA. […] FIG. 3 is a composite of an experiment testing llama CD70 Fabs for blocking activity (in the inhibition ELISA, see white bars) and for CD70 binding (binding ELISA, black bars). For the binding ELISA, Flag-TNC-CD70 is captured by an anti-Flag mAb and binding of the Fabs is detected using an anti-myc-HRP mAb, which recognizes the MYC tag fused to the C-terminus of the Fd fragment. For comparison purposes, known monoclonal antibodies to CD70 (SGN70 described in US 2010/0129362 A1, clone 1F6; and MDX69A7 described in WO2008/074004 FIGS. 5A and 5B) were tested in parallel. […] Of interest is clone 59D10, which as Fab has no blocking activity, but when converted into a chimeric IgG was antagonistic (see Table 3). Amino acid sequences of the VH and VL domains of binding and blocking llama-derived Fab clones are shown elsewhere herein (Tables 6-9).

Test [3] has as its target T2, recombinant human CD70 (Flag-TNC-CD70). Put plainly: Biacore; recombinant human CD70 on CM5 chip; Fab injected. On the procedure:
Off-rates of the purified llama-derived anti-CD70 blocking Fabs were determined using the Biacore. Recombinant human CD70 was immobilized on a CM5 Biacore chip. The immobilization was performed in accordance with a method provided by Biacore and by using the NHS/EDC kit (Biacore AB): after activation of the chip, a solution of 50 μg/ml of recombinant CD70 in 10 mM acetate buffer with pH of 5 was prepared and 1 μl of this solution (50ng) was injected resulting in a surface density of approximately 1000 RU.
Fabs for the CD70 mAbs ARGX-110, MDX2H5 and SGN70 were prepared by […] digestion (SGN70 and MDX69A7 are described elsewhere herein, MDX2H5, also referred to as MDX1411, is described in WO2008/074004 FIGS. 1A and 1B). Fabs, at a concentration of approximately 100-400 μg/ml, were diluted 6-fold in hepes-buffered saline (0.1M Hepes, 1.5M NaCl, 30 mM EDTA, 0.5% v/v surfactant P20). They were injected (30 μl) and passed through the flow cells at a flow rate of 30 μl/min. After binding of the Fab to CD70, the off-rate was monitored for a period of 10 minutes. After the dissociation, the flow cell surfaces were regenerated by injecting 5 μl of 10 mM NaOH. Sometimes multiple injections of NaOH were needed to regenerate the surfaces depending on the affinity of the Fabs. Off-rate analysis was done by applying the BIAevaluation software. First, the sensogram of the blank runs were subtracted from those obtained with the coated flow cell. […] Moreover, the off-rate of CD27 for CD70 was determined as well.

For test [4], the target named is T3, rhesus recombinant CD70 (FLAG-TNC-rhesus CD70) (rhesus).
T3 construct: also called rhesus Flag-TNC-CD70
The test is described as follows: Biacore; rhesus recombinant CD70 on chip; Fab injected. (In general: SPR reads the build-up and loss of mass on a sensor chip optically.)

The target in test [5] is T4, human CD70 expressed on the surface of cells (human, UniProt P32970 1-193).
T4 sequence (looked up): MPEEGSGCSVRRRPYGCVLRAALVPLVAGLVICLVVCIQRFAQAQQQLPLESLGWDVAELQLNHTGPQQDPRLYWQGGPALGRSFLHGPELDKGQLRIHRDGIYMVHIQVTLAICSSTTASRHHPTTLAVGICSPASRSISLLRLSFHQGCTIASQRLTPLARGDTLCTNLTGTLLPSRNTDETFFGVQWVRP
The test is described as follows: cell-based or functional assay.

B1: human-mouse CD70 chimera chim-1 (Flag-TNC-CD70) (ligand)
chain: HPEPHTAELQLNLTVPRKDPTLRWGAGPALGRSFLHGPELDKGQLRIHRDGIYMVHIQVTLAICSSTTASRHHPTTLAVGICSPASRSISLLRLSFHQGCTIASQRLTPLARGDTLCTNLTGTLLPSRNTDETFFGVQWVRP
modifications: Soluble homotrimer held by the TNC domain; one CD70 ECD chain is given.
notes: also called chimera 1; not shown: N-terminal Flag tag, TNC (tenascin-C) trimerisation domain and any linkers of the Flag-TNC-CD70 construct
In the case of B1, in test [1], the binding result is “binds”.

B2: human-mouse CD70 chimera chim-2.2 (Flag-TNC-CD70) (ligand)
chain: HPEPHTAELQLNLTVPRKDPTLRWGAGPALGRSFTHGPELEEGHLRIHRDGIYMVHIQVTLAICSSTTASRHHPTTLAVGICSPASRSISLLRLSFHQGCTIASQRLTPLARGDTLCTNLTGTLLPSRNTDETFFGVQWVRP
notes: also called chimera 2.2; not shown: N-terminal Flag tag, TNC trimerisation domain and any linkers of the Flag-TNC-CD70 construct
As for B2, in test [1], the binding result is “binds”.

B3: human-mouse CD70 chimera chim-2.4 (Flag-TNC-CD70) (ligand, not shown: small tags and cut ends)
chain: HPEPHTAELQLNLTVPRKDPTLRWGAGPALGRSFTHGPELEEGHLRIHQDGLYRLHIQVTLAICSSTTASRHHPTTLAVGICSPASRSISLLRLSFHQGCTIASQRLTPLARGDTLCTNLTGTLLPSRNTDETFFGVQWVRP
notes: also called chimera 2.4
Turning to B3, the binding result in test [1] is on record as “binds”.

B4: human-mouse CD70 chimera chim-2 (Flag-TNC-CD70) (ligand, not shown: small tags and cut ends)
chain: HPEPHTAELQLNLTVPRKDPTLRWGAGPALGRSFTHGPELEEGHLRIHQDGLYRLHIQVTLANCSSTTASRHHPTTLAVGICSPASRSISLLRLSFHQGCTIASQRLTPLARGDTLCTNLTGTLLPSRNTDETFFGVQWVRP
notes: also called chimera 2
With B4, the binding result in test [1] is recorded as “binds”.

B5: human-mouse CD70 chimera chim-2.1 (Flag-TNC-CD70) (ligand)
chain: HPEPHTAELQLNLTVPRKDPTLRWGAGPALGRSFTHGPELDKGQLRIHRDGIYMVHIQVTLAICSSTTASRHHPTTLAVGICSPASRSISLLRLSFHQGCTIASQRLTPLARGDTLCTNLTGTLLPSRNTDETFFGVQWVRP
modifications: Soluble homotrimer held by the TNC domain; one CD70 ECD chain is given.
notes: also called chimera 2.1; not shown: N-terminal Flag tag, TNC (tenascin-C) trimerisation domain and any linkers of the Flag-TNC-CD70 construct
Turning to B5, the binding result in test [1] is “binds”.

B6: 9B2 Fab (Fab, V domains shown)
VH: QLQVVESGGGLMQPGGSLRLSCAASGFTFSGSAMSWVRQAPGKGLEWVSSIYSHSMYTYYADSVKSRFTISTDNAKNTLYLQMNSLKPDDTAVYYCAASSDYEGLFVSWGQGTQVTVSS
VL: QAVLTQPPSLSASPGSSVRLTCTLNSANSVGSYDISWYQQKAGSPPRYLLYYYSDSLSHQGSGVPSRFSGSTDASANAGLLLISGLQPEDEADYYCSAYNRGSHVFGGGTKLTVLG
notes: Llama-derived Fab
In general, koff refers to a measure of how fast the partners let go of each other. For the molecule B6, the “IC50 (read off the curve)” value in test [2] is approximately 4 nM. Also, the off-rate (koff) in test [3] was found to be 0.00028 s⁻¹; in test [4], 0.00061 s⁻¹.

B7: 9G2 Fab (Fab, V domains shown)
VH: QVQLVESGGGLMQPGGSLRLSCAASGFTFSSSAMSWVRQAPGKGLEWVSSIYSDSSYTYYADSVKSRFTISTDNAKNTLYLQMNSLKPDDTAVYYCAGSSDYEGSFASWGQGTQVTVSS
VL: QSVVTQPPSLSASPGSSVRLTCTLSSGNSVGNYDISWYQQKAGSPPRYLLYYYSDSVKHQGSGVPSRFSGSSDASANAGLLLISGLQPEDEADYYCSAYKSGSHVFGGGTKLTVLG
notes: Llama-derived Fab
B7: the “IC50 (read off the curve)” value in test [2] was approximately 2 nM. The koff in test [3] and in test [4] was 0.00018 s⁻¹ throughout.

B8: 53A2 mAb (full-length human IgG1, HEK293) (antibody, V domains shown)
VH: EVQLVESGGGLVQPGGSLRLSCAASGFTFSVYYMNWVRQAPGKGLEWVSDINNEGGTTYYADSVKGRFTISRDNSKNSLYLQMNSLRAEDTAVYYCARDAGYSNHVPIFDSWGQGTLVTVSS
VL: QAVVTQEPSFSVSPGGTVTLTCGLKSGSVTSDNFPTWYQQTPGQAPRLLIYNTNTRHSGVPDRFSGSILGNKAALTITGAQADDEAEYFCALFISNPSVEFGGGTQLTVLG
In the case of B8, in test [5], the “Raji co-culture assay IC50 relative to 27B3” value is 0.8 fold of 27B3.

B9: 41D12 mAb (full-length human IgG1, HEK293) (antibody, V domains shown)
VH: EVQLVESGGGLVQPGGSLRLSCAASGFTFSVYYMNWVRQAPGKGLEWVSDINNEGGTTYYADSVKGRFTISRDNSKNSLYLQMNSLRAEDTAVYYCARDAGYSNHVPIFDSWGQGTLVTVSS
VL: QAVVTQEPSLTVSPGGTVTLTCGLKSGSVTSDNFPTWYQQTPGQAPRLLIYNTNTRHSGVPDRFSGSILGNKAALTITGAQADDEAEYFCALFISNPSVEFGGGTQLTVLG
Regarding B9, the “Raji co-culture assay IC50 relative to 27B3” value in test [5] was 1.2 fold of 27B3.

B10: 35G2 mAb (full-length human IgG1, HEK293) (antibody, V domains shown)
VH: EVQLVESGGGLVQPGGSLRLSCAASGFTFSVYYMNWVRQAPGKGLEWVSDINNEGGTTYYADSVKGRFTISRDNAKNTLYLQMNSLKPEDTAVYYCARDAGYSNHVPIFDSWGQGTLVTVSS
VL: QTVVTQEPSFSVSPGGTVTLTCGLKSGSVTSTNFPTWYQQTPGQAPRLLIYNTNSRHSGVPDRFSGSILGNKAALTITGAQADDEADYFCALFISNPSVEFGGGTQLTVLG
As to B10, the “Raji co-culture assay IC50 relative to 27B3” value in test [5] is 1.4 fold of 27B3.

B11: 40F1 mAb (full-length human IgG1, HEK293) (antibody, V domains shown)
VH: EVQLVESGGGLVQPGGSLRLSCAASGFTFSVYYMNWVRQAPGKGLEWVSDINNEGGATYYADSVKGRFTISRDNSKNSLYLQMNSLRAEDTAVYYCARDAGYSNHVPIFDSWGQGTQVTVSS
VL: QAVVTQEPSFSVSPGGTVTLTCGLKSGSVTSDNFPTWYQQTPGQAPRLLIYNTNTRHSGVPDRFSGSILGNKAALTITGAQADDEAEYFCALFISNPSVEFGGGTQLTVLG
As to B11, the “Raji co-culture assay IC50 relative to 27B3” value in test [5] was 1.8 fold of 27B3.

B12: human-mouse CD70 chimera chim-3 (Flag-TNC-CD70) (ligand, not shown: small tags and cut ends)
chain: HPEPHTAELQLNLTVPRKDPTLRWGAGPALGRSFTHGPELEEGHLRIHQDGLYRLHIQVTLANCSSPGSTLQHRATLAVGICSPASRSISLLRLSFHQGCTIASQRLTPLARGDTLCTNLTGTLLPSRNTDETFFGVQWVRP
notes: also called chimera 3
Regarding B12, the binding result in test [1] is recorded as “binds”.

B13: 5F4 Fab (Fab, V domains shown)
VH: EVQVQESGGGLVHPGGSLKLSCAASGFTFDTYAMSWVRQAPGKGLEWVSAISWSGGETFYAESMKGRFTISRNNAKNTLYLQMNSLKSEDTAVYYCARGMGLAEGLTDWGQGTQVTVSS
VL: QAVVTHPPSLSASPGSSVRLTCTLISGDNIGGYDISWYQQKTGSPPRYLLYYYSDSYKHQSSGVPSRFSGSKDASANAGLLLISGLQSEDEADYYCSAYKSGSYKAPVFGGGTHLTVLG
notes: Llama-derived Fab
Take B13: the “IC50 (read off the curve)” value in test [2] was approximately 200 ng/mL. Besides, the koff in test [3] is 8e-05 s⁻¹; in test [4], 0.0005 s⁻¹.

B14: human-mouse CD70 chimera chim-4 (Flag-TNC-CD70) (ligand, not shown: small tags and cut ends)
chain: HPEPHTAELQLNLTVPRKDPTLRWGAGPALGRSFTHGPELEEGHLRIHQDGLYRLHIQVTLANCSSPGSTLQHRATLAVGICSPAAHGISLLRGRFGQDCTVALQRLTYLVHGDVLCTNLTGTLLPSRNTDETFFGVQWVRP
notes: also called chimera 4
Turning to B14, in test [1], the binding result is reported as “binds”.
